Data from paper PMC4203341 (Developmental cell, 2014).

Molecular target: T1, Trim58 PS domain (purified, for SEC-MALLS) (mouse, UniProt Q5NCC9 1-485)
T1 sequence (looked up): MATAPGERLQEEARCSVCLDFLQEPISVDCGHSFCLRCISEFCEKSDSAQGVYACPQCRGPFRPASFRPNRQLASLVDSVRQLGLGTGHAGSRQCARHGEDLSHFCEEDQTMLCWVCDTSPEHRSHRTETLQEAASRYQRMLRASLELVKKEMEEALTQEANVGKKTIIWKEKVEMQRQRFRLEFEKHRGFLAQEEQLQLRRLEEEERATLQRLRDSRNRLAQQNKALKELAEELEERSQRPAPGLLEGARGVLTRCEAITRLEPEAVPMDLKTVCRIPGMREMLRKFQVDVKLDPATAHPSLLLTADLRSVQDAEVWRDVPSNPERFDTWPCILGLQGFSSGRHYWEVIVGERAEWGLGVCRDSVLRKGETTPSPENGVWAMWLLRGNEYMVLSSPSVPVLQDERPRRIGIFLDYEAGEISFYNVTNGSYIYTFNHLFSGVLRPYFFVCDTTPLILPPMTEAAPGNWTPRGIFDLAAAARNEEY
Assay: SEC-MALS

B1: GST-DIC (1–120) (domain or fragment)
chain: MSDKSDLKAELERKKQRLAQIREEKKRKEEERKKKETDQKKEAAVSVQEESDLEKKRREAEALLQSMGLTTDSPIVPPPMSPSSKSVSTPSEAGSQDSGDGAVGSRRGPIKLGMAKITQV
stoichiometry N: 1
